Legend:
Details in all cases: both partners purified
[1] = biological target: T1, Human SS18 (residues 1-387), purified recombinant (human, UniProt Q15532-2 1-387); test: SEC; purified human proteins or fragments run together on a size-exclusion column; coelution, fractions on SDS-PAGE
T1 construct: The MBP-his6 vector is told for the proteins studied in phase separation; also called SS18^(1-387); SS18-WT; source: E. coli BL21(DE3) Codon Plus, purified (Ni-NTA, SEC)

[2] = biological target: T2, SNF11^(38-169) (S. cerevisiae, UniProt P38956 38-169); test: AUC; sedimentation velocity, 4 °C, interference detection, 50 mM MES pH 6.0, 50 mM NaCl, 1 mM EDTA, 1 mM DTT; SEDFIT
T2 construct: Cloned into one of the two multiple cloning sites of pETDuet-1
T2 sequence (looked up): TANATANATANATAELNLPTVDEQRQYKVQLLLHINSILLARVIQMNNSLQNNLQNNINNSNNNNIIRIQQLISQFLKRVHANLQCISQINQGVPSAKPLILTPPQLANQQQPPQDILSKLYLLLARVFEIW

[3] = biological target: T3, SS18^(14-101) (human, UniProt Q15532 14-101); test: as above
T3 construct: SS18, human, residues 14-101, includes the SNH domain; also called SS18 fragment aa 14-101 (includes the SNH domain); source: E. coli BL21(DE3) Codon Plus, purified
T3 sequence (Q15532 14-101): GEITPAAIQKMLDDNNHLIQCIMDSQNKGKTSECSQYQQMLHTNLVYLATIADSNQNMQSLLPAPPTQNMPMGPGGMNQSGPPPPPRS

T1 sequence (Q15532 other isoform, or with tags, fused parts or gaps): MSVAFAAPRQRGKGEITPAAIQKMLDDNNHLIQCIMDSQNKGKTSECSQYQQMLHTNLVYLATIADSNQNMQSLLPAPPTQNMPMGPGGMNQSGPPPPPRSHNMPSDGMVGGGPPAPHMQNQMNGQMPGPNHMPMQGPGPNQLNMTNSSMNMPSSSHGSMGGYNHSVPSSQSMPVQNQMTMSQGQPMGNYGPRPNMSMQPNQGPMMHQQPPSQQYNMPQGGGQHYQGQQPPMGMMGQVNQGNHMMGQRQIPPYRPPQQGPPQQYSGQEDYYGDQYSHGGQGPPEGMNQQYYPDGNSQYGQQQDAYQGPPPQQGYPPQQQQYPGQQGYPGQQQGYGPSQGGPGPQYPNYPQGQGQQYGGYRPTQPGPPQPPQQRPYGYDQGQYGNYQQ

B1: BRG1^(1-282), N-terminal 282-residue fragment of BRG1 (domain or fragment, human, UniProt P51532 1-282, looked up)
chain: MSTPDPPLGGTPRPGPSPGPGPSPGAMLGPSPGPSPGSAHSMMGPSPGPPSAGHPIPTQGPGGYPQDNMHQMHKPMESMHEKGMSDDPRYNQMKGMGMRSGGHAGMGPPPSPMDQHSQGYPSPLGGSEHASSPVPASGPSSGPQMSSGPGGAPLDGADPQALGQQNRGPTPFNQNQLHQLRAQIMAYKMLARGQPLPDHLQMAVQGKRPMPGMQQQMPTLPPPSVSATGPGPGPGPGPGPGPGPAPPNYSRPHGMGGPNMPPPGPSGVPPGMPGQPPGGPPK
notes: Cloned into a modified pET32a (Trx-his6, N-terminal); the methods describe PreScission cleavage of the Trx-his6 tag in general; Cy3-labelled only for imaging; source: E. coli BL21(DE3) Codon Plus, purified (Ni-NTA, SEC, ion exchange); not shown: Trx, N-terminal, cleaved; His6, N-terminal, cleaved
binding result [1]: binds

B2: SNF2^(248-308), 60-residue fragment including the QLQ domain of SNF2 (domain or fragment, S. cerevisiae, UniProt P22082 248-308, looked up)
chain: FTAEQSELLKAQITSLKCLVNRKPIPFEFQAVIQKSINHPPDFKRMLLSLSEFARRRQPTD
notes: Cloned into one of the two multiple cloning sites of pETDuet-1
stoichiometry N [2]: 1

B3: BRG1^(172-213) (domain or fragment, human, UniProt P51532 172-213, looked up)
chain: FNQNQLHQLRAQIMAYKMLARGQPLPDHLQMAVQGKRPMPGM
notes: In the crystal it stood fused to SS18^(14-101) on one chain; source: E. coli BL21(DE3) Codon Plus, purified
stoichiometry N [3]: 1
